Assay results taken from publication PMC4942675 (Molecular Cell, 2016).
Substitutions are numbered along the chain they refer to. Where two headings read alike, the source gives them in different places.

Experiments:
[1] = biological target: T1, S. cerevisiae Exo9 (nine-subunit exosome core, no Rrp44 subunit) (S. cerevisiae, UniProt P46948;Q05636;P53256;P25359;P48240;Q12277;P38792;Q08285;P53859); assay: MST
[2] = biological target: T1, S. cerevisiae Exo9 (nine-subunit …); assay: pull-down
[3] = biological target: T1, S. cerevisiae Exo9 (nine-subunit …); assay: pull-down; remark: listed apart in the source
[4] = biological target: T2, Rrp43 (subunit of Exo10 in the crystal structure) (S. cerevisiae, UniProt P25359); assay: crystal structure
T2 sequence: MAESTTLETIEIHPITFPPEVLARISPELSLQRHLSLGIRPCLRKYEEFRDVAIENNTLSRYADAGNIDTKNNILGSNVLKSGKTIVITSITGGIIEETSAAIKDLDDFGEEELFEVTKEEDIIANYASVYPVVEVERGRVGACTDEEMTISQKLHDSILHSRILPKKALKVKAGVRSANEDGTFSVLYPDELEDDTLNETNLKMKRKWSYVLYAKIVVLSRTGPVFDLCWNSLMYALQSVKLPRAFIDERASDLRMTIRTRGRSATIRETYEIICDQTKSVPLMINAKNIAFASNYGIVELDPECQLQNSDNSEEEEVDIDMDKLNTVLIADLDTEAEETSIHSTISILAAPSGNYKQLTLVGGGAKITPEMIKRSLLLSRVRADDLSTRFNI

B1: GFP-Ski7_(exomut-1) (Trp125Asp, Ile128Asp) (domain or fragment)
chain: DDKLNLEESDKADKEMNHYCFLKNDPCINQTDDFAFTNFIIKDKKNSLSTSIPLSSQNSSFLSLKKHNNELLGIFVPCNLPKTTRKVAIENFNRPSPDDIIQSAQLNAFN
[1]
  Kd: 50 nM

B2: GFP-Ski7_(exomut-2) (Phe149Asp, Phe151Asp, Phe154Asp) (domain or fragment)
chain: B1 chain with D10W, D13I, F34D, F36D, F39D
[2]
  binding result: binds

B3: GFP-Ski7_(exomut-3) (Ile189Asp, Phe190Asp) (domain or fragment)
chain: B1 chain with D10W, D13I, I74D, F75D
[2]
  binding result: binds

B4: GFP-tagged Rrp6exo (GFP-Sumo-Rrp6C, Rrp6 residues 518-693) (domain or fragment)
chain: EATPIPSSETKADGILLETISVPQIRDVMERFSVLCNSNISKSRAKPVTNSSILLGKILPREEHDIAYSKDGLPNKVKTEDIRIRAQNFKSALANLEDIIFEIEKPLVVPVKLEEIKTVDPASAPNHSPEIDNLDDLVVLKKKNIQKKQPAKEKGVTEKDAVDYSKIPNILSNKPG
[1]
  Kd: ~10 nM

B5: GFP-tagged Ski7exo (domain or fragment)
chain: B1 chain with D10W, D13I
[1]
  Kd: ~5 nM

B6: Ski7 residues 116-235 (Exo9-interacting domain) (domain or fragment)
chain: DDKLNLEESWKAIKEMNHYCFLKNDPCINQTDDFAFTNFIIKDKKNSLSTSIPLSSQNSSFLSLKKHNNELLGIFVPCNLPKTTRKVAIENFNRPSPDDIIQSAQLNAFNEKLENLNIKS
[3]
  binding result: binds

B7: Mtr3 (subunit of Exo10 in the crystal structure) (natural protein)
chain: MNVQDRRRLLGPAAAKPMAFSNTTTHVPEKKSTDLTPKGNESEQELSLHTGFIENCNGSALVEARSLGHQTSLITAVYGPRSIRGSFTSQGTISIQLKNGLLEKYNTNELKEVSSFLMGIFNSVVNLSRYPKSGIDIFVYLTYDKDLTNNPQDDDSQSKMMSSQISSLIPHCITSITLALADAGIELVDMAGAGEANGTVVSFIKNGEEIVGFWKDDGDDEDLLECLDRCKEQYNRYRDLMISCLMNQET
[4]
  binding result: binds
